The values that follow come from US20220218850A1, “Methods and Compositions for Two-Stage Microbubble Delivery of Active Agents” (Virginia Commonwealth University, priority 2021, published 2022).

This data set concerns DU-145 tumor xenografts. Nature of the data set: UTMD delivery of Alexa Fluor-His-MDA-7/MB complex to DU-145 xenografts. The class given is in vivo, mice. The conditions noted are these: tail vein, ultrasound at left flank tumor (UTMD). How it is done: DU-145 human prostate cancer cells were established as xenografts in the left flank of nude mice. Alexa Fluor labeled His-MDA-7/MBs complex were injected through the tail vein of nude mice, and sonoporated in the xenograft (DU-145) tumor implanted in the left flank with a portable ultrasound (SonoSite Micro-Maxx US platform) equipped with an L25 linear array transducer set at 0.7 Mechanical Index, 1.8 MPa for 10 min (UTMD approach). The fluorescent image was captured using Xenogen IVIS spectrum. […] Lighter color indicates higher fluorescent intensity.
In addition to delivering therapeutic viruses systemically, we also tested the possibility of using MBs and a UTMD approach to deliver therapeutic proteins in vivo. His tagged MDA-7/IL-24 (His-MDA-7) was purified by using Ni-NTA column chromatography. 1 mg/ml of His-MDA-7 solution was mixed with Alexa Fluor 488 containing 0.1 M Sodium bicarbonate, followed by removal of unincorporated dye by centrifugation using centricon (3 kD cut off MW). Confirmation of labeling of His-MDA-7 (Alexa Fluor-His-MDA-7) was obtained spectroflurometrically based on emission spectra changes. The Alexa Fluor-His-MDA-7 was incubated overnight with MBs and localization of the labeled protein complex in the MBs was monitored by green fluorescence and found to be associated with the lipid shell of the MB (FIG. 3A). […]

B1: Alexa Fluor-His-MDA-7: His tagged MDA-7/IL-24 protein labeled with Alexa Fluor 488, complexed with microbubbles (protein, UniProt Q13007 52-206, looked up)
Interleukin-24: QEFHFGPCQVKGVVPQKLWEAFWAVKDTMQAQDNITSARLLQQEVLQNVSDAESCYLVHTLLEFYLKTVFKNYHNRTVEVRTLKSFSTLANNFVLIVSQLQPSQENEMFSIRDSAHRRFLLFRRAFKQLDVEAALTKALGEVDILLTWMQKFYKL
modifications: His tag, Alexa Fluor 488, microbubble complex
notes: His tagged MDA-7/IL-24 protein labeled with Alexa Fluor 488, complexed with microbubbles
Take B1: the “localisation of labeled protein (fluorescent image)” value was “mostly localized in the left flank where ultrasound was applied”. Moreover, for the setting “listed as Alexa Fluor-MDA-7”, the “localisation of labeled protein (fluorescent image)” value is listed as “located predominantly in the tumor in the left flank of mice”.
